T1: full-length human TL1A on CHO-K1 cells (human, UniProt O95150 1-251)
T1 construct: whole, on cells; also called cells over-expressing human TL1A
T1 sequence (looked up): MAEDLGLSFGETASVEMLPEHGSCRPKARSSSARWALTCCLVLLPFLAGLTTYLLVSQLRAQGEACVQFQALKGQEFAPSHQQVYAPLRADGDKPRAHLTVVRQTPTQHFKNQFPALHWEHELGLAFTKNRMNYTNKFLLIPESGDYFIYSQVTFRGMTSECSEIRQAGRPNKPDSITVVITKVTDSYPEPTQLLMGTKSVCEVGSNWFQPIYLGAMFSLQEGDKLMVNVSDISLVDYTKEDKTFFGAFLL

T2: recombinant human TL1A (human, UniProt O95150 71-251)
T2 chain: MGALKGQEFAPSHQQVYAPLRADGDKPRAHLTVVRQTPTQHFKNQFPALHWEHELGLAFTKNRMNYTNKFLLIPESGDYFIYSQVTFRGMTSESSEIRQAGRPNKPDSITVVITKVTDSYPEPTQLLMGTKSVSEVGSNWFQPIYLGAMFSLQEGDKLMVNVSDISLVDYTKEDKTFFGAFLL

T3: human IL-23 (human, UniProt P29460 23-328; Q9NPF7 20-189)
T3 sequence 1: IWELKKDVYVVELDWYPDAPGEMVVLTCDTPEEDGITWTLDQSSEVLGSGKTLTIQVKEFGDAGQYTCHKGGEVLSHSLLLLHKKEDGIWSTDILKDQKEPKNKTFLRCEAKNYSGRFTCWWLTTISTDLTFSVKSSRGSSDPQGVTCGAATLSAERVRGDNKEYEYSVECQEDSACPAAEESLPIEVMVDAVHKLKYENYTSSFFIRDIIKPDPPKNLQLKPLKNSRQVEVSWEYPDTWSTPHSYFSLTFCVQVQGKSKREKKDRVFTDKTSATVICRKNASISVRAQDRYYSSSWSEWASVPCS
T3 sequence 2: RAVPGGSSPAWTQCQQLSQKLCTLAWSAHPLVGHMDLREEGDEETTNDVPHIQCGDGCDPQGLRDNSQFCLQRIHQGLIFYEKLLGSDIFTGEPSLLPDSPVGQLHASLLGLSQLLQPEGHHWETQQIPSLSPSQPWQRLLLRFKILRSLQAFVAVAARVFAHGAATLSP

T4: human IL-12 (human, UniProt P29460 23-328; P29459 23-219)
T4 sequence 1: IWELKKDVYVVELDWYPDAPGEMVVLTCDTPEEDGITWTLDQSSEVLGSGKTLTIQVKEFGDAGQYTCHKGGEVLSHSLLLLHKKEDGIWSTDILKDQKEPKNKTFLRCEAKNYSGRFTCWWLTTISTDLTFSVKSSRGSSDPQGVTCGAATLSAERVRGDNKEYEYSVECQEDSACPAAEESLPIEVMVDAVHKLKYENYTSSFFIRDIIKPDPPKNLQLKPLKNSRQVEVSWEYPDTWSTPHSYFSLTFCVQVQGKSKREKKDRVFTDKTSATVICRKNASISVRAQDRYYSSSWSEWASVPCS
T4 sequence 2: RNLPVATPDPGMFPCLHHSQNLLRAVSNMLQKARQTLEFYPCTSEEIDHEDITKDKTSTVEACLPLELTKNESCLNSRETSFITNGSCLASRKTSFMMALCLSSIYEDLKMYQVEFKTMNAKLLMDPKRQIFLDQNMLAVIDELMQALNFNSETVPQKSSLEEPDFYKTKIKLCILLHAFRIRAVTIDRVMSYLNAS

T5: recombinant human TL1A (human, UniProt O95150 71-251)
T5 chain: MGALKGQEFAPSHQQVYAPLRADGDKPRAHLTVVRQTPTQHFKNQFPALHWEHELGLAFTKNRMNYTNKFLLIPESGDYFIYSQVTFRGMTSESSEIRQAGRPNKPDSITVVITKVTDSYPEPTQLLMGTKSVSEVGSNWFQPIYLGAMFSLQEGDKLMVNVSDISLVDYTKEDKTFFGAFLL


Experiments:
[1] = biological target: T1, full-length human TL1A on CHO-K1 cells; assay: flow cytometry on CHO-K1 cells stably expressing full-length human TL1A, PE anti-human IgG, median fluorescent intensity
Method: A cell binding assay was performed to examine if the panel of [xTL1A] bivalent antibody variants could bind to human TL1A over-expressed on the cell surface. […] [xTL1A] bivalent antibody variants were incubated with cells on ice for 30-60 minutes at a concentration of either 1 μg/mL or 20 μg/mL. Cells were pelleted by centrifugation at 1500 RPM for 5 minutes at 4° C. and supernatant was discarded by aspiration. The cells were washed three times with DPBS with 4% FBS buffer as described. Cells were resuspended in 100 μL of PE-anti-human IgG (Life technologies Catalog number H10104) diluted 1:500 in DPBS with 4% FBS buffer and incubated on ice for 15 minutes. Cells were washed three times as described and resuspended in 200 μL of DPBS with 4% FBS buffer, then run on a flow cytometry instrument.

recombinant human TL1A [2] = biological target: T2, recombinant human TL1A; assay: cell-based or functional assay
human IL-23 = biological target: T3, human IL-23; assay: cell-based or functional assay
human IL-12 = biological target: T4, human IL-12; assay: cell-based or functional assay
recombinant human TL1A [3] = biological target: T5, recombinant human TL1A; assay: cell-based or functional assay
human serum albumin = biological target: T6, human serum albumin (human, UniProt P02768 25-609); assay: direct binding ELISA on plate-coated HSA (1 ug/mL), anti-human IgG-Fc HRP, OD450
T6 construct: also called HSA
Method: (§1) For the direct binding ELISA method to HSA or BSA, 96-well high binding plates (Corning, product number 3590) were coated with 1 μg/mL recombinant HSA or BSA in 100 μL/well in PBS overnight at 4° C. Plates were then blocked in PBS+0.02% casein solution and washed with PBS+0.05% Tween-20 following standard ELISA protocol. […] Plates were washed with PBS+0.05% Tween-20 following standard ELISA protocol, and goat anti-human IgG-Fc HRP conjugated secondary antibody (Pierce, #31413) diluted to 1:10,000 in assay buffer was added to plates and incubated for 1 hour at room temperature. Next, the plates were washed with PBS+0.05% Tween-20 following standard ELISA protocol, and then TMB substrate (BioFX Laboratories, catalog number TMBW-0100-01) was added to plates.
(§2) Reactions were stopped after approximately 5 minutes by adding 0.18 M ortho-phosphoric acid to each well and absorbance was read at 450 nm. […] For this method, samples diluted to 0.3 mg/mL were dispensed into the sample tray of a MicroCal VP-Capillary DSC with Autosampler (Malvern Instruments, Inc.), equilibrated for 5 minutes at 10° C. and then scanned up to 110° C. at a rate of 100° C. per/hour. A filtering period of 16 seconds was selected. Raw data was baseline corrected and the protein concentration was normalized. Origin Software 7.0 (Origin Lab Corporation, Northampton, MA) was used to fit the data to an MN2-State Model with an appropriate number of transitions.

recombinant human TL1A [4] = biological target: T5, recombinant human TL1A; assay: SPR, recombinant human TL1A
bovine serum albumin = biological target: T7, bovine serum albumin (bovine, UniProt P02769 25-607); assay: direct binding ELISA on plate-coated BSA (1 ug/mL), anti-human IgG-Fc HRP, OD450
T7 construct: also called BSA
T7 sequence (P02769 25-607 limits assumed): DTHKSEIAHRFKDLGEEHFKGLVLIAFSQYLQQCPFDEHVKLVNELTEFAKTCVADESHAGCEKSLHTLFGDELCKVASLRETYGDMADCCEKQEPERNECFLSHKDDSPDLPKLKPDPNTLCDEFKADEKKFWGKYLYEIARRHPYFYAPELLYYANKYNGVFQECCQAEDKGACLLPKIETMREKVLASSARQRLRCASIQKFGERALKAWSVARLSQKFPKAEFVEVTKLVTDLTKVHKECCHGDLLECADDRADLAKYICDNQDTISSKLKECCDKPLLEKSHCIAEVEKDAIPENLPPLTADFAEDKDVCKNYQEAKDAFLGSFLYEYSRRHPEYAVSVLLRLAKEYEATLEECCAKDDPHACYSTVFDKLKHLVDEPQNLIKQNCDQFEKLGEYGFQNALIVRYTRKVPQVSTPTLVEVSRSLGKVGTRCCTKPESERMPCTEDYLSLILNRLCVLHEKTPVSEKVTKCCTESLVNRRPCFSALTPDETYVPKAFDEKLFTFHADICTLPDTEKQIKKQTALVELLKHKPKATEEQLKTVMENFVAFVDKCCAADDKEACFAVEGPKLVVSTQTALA
Method: as §1, §2

Binder	binding result [1]	NF-κB assay IC50 (TF-1 reporter cells) (recombinant human TL1A [2]) [nM]	NF-κB assay, Bioactivity relative to TL1A-0372 (recombinant human TL1A [2]) [fold]	KIT-225 STAT3 assay IL-23, Bioactivity relative to p40-0003 (human IL-23) [fold]	KIT-225 STAT3 assay IL-23 IC50 (human IL-23) [nM]	KIT-225 STAT4 assay IL-12, Bioactivity relative to p40-0003 (human IL-12) [fold]	KIT-225 STAT4 assay IL-12 IC50 (human IL-12) [nM]	NFκB Bioassay IC50 (recombinant human TL1A [3]) [nM]	binding result (human serum albumin)	Kd (recombinant human TL1A [4]) [nM]	koff (recombinant human TL1A [4]) [s⁻¹]	kon (recombinant human TL1A [4]) [M⁻¹ s⁻¹]	binding result (bovine serum albumin)
[xTL1A]-0360 (antibody, human IgG1, kappa, V domains shown, bivalent disabled antibody, IgG1 effector-function-minimized/kappa) VH: not shown VL: DIQMTQSPSSLSASVGDRVTITCRASQSVSSYLAWYQQKPGKAPKLLIYDASNRATGVPSRFSGSGSGTDFTLTISSLQPEDFATYYCQQRSNWPWTFGQGTKVEIKR	no binding (tested: 20 ug/mL)	–	–	–	–	–	–	–	–	–	–	–	–
p40TL1A-0032 bispecific antibody (bispecific antibody) heavy 1: EVQLVQSGAEVKKPGESLKISCKGSGYSFTTYWLGWVRQMPGKGLDWIGIMSPVDSDIRYSPSFQGQVTMSVDKSITTAYLQWNSLKASDTAMYYCARRRPGQGYFDFWGQGTLVTVSSASTKGPSVFPKAPSSKSTSGGTAALGCLVKDYFPEPVTVSWNSGALTSGVHTFPAVLQSSGLYSLSSSVTVPSSSLGTQTYICNVNHKPSNTKVDKKVEPKSCDKTHTCPPCPAPEAAGAPSVFLFPPKPKDTLMISRTPEVTCVVVDVSHEDPEVKFNWYVDGVEVHNAKTKPREEQYNSTYRVVSVLTVLHQDWLNGKEYKCKVSNKALPAPIEKTISKAKGQPREPQVCTLPPSREEMTKNQVSLWCLVKGFYPSDIAVEWESNGQPENNYKTTPPVLDSDGSFFLYSKLTVDKSRWQQGNVFSCSVLHEALHSHYTQKSLSLSPGK light 1: DIQMTQSPSSLSASVGDRVTITCRASQGISSWLAWYQQKPEKAPKSLIYAASSLQSGVPSRFSGSGSGTDFTLTISSLQPEDFATYYCQQYNIYPYTFGQGTKLEIKRTVAAPSVFIFPPSDEQLKSGTASVSCLLNNFYPREAKVQWKVDNALQSGNSQESVTEQDSKDSTYSLDSTLTLSKADYEKHKVYACEVTHQGLSSPVTKSFNRGEC heavy 2: QVQLVQSGAEVKKPGASVKVSCKASGYDYTYYGISWVRQAPGQGLEWMGWISTYNTGTHYAPSLQGRVTMTTDTSTSTAYMELRSLRSDDTAVYYCARESYYGSGAFRGGMDVWGQGTTVTVSSASTKGPSVFPEAPSSKSTSGGTAALGCLVKDYFPEPVTVSWNSGALTSGVHTFPAVLQSSGLYSLGSVVTVPSSSLGTQTYICNVNHKPSNTKVDKKVEPKSCDKTHTCPPCPAPEAAGAPSVFLFPPKPKDTLMISRTPEVTCVVVDVSHEDPEVKFNWYVDGVEVHNAKTKPREEQYNSTYRVVSVLTVLHQDWLNGKEYKCKVSNKALPAPIEKTISKAKGQPREPQVYTLPPCREEMTKNQVSLSCAVKGFYPSDIAVEWESNGQPENNYKTTPPVLDSDGSFFLVSKLTVDKSRWQQGNVFSCSVLHEALHSHYTQKSLSLSPGK light 2: not shown	–	0.131	1.3	2.3	3.8	1.4	4.6	–	–	–	–	–	–
TL1A-0371 (bispecific antibody, also called TL1A-0371 MBsAb; not shown: human IgG1 constant region with effector-minimizing, KiH and LS mutations) heavy 1: QVQLVQSGAEVKKPGASVKVSCKASGYDYTYYGISWVRQAPGQGLEWMGWISTYNTGTHYAPSLQGRVTMTTDTSTSTAYMELRSLRSDDTAVYYCARESYYGSGAFRGGMDVWGQGTTVTVSSASTKGPSVFPLAPSSKSTSGGTAALGCLVKDYFPEPVTVSWNSGALTSGVHTFPAVLQSSGLYSLSSVVTVPSSSLGTQTYICNVNHKPSNTKVDKKVEPKSCDKTHTCPPCPAPEAAGAPSVFLFPPKPKDTLMISRTPEVTCVVVDVSHEDPEVKFNWYVDGVEVHNAKTKPREEQYNSTYRVVSVLTVLHQDWLNGKEYKCKVSNKALPAPIEKTISKAKGQPREPQVCTLPPSREEMTKNQVSLWCLVKGFYPSDIAVEWESNGQPENNYKTTPPVLDSDGSFFLYSKLTVDKSRWQQGNVFSCSVLHEALHSHYTQKSLSLSPGK heavy 2: not shown light: not shown	–	–	–	–	–	–	–	1.37	no binding (tested: 1e-6 M)	0.261	4.36e-05	168000	no binding (tested: 1e-6 M)
TL1A-0368 (bispecific antibody, not shown: human IgG1 constant region with effector-minimizing, KiH and LS mutations) heavy 1: QVQLVQSGAEVKKPGASVKVSCKASGYDYTYYGISWVRQAPGQGLEWMGWISTYNTGTHYAPSLQGRVTMTTDTSTSTAYMELRSLRSDDTAVYYCARESYYGSGAFRGGMDVWGQGTTVTVSSASTKGPSVFPLAPSSKSTSGGTAALGCLVKDYFPEPVTVSWNSGALTSGVHTFPAVLQSSGLYSLSSVVTVPSSSLGTQTYICNVNHKPSNTKVDKKVEPKSCDKTHTCPPCPAPEAAGAPSVFLFPPKPKDTLMISRTPEVTCVVVDVSHEDPEVKFNWYVDGVEVHNAKTKPREEQYNSTYRVVSVLTVLHQDWLNGKEYKCKVSNKALPAPIEKTISKAKGQPREPQVCTLPPSREEMTKNQVSLWCLVKGFYPSDIAVEWESNGQPENNYKTTPPVLDSDGSFFLYSKLTVDKSRWQQGNVFSCSVLHEALHSHYTQKSLSLSPGK heavy 2: QVQLVQSGAEVKKPGASVKVSCKASGYTFTSYGISWVRQAPGQGLEWMGWISAYNGNTNYAQKLQGRVTMTTDTSTSTAYMELRSLRSDDTAVYYCARESYYGSEAFRAGMDVWGQGTTVTVSS light: not shown	–	–	–	–	–	–	–	1.56	no binding (tested: 1e-6 M)	0.242	4.61e-05	191000	no binding (tested: 1e-6 M)
TL1A-0370 (bispecific antibody, also called TL1A-0370 MBsAb; not shown: human IgG1 constant region with effector-minimizing, KiH and LS mutations) heavy 1: QVQLVQSGAEVKKPGASVKVSCKASGYDYTYYGISWVRQAPGQGLEWMGWISTYNTGTHYAPSLQGRVTMTTDTSTSTAYMELRSLRSDDTAVYYCARESYYGSGAFRGGMDVWGQGTTVTVSSASTKGPSVFPLAPSSKSTSGGTAALGCLVKDYFPEPVTVSWNSGALTSGVHTFPAVLQSSGLYSLSSVVTVPSSSLGTQTYICNVNHKPSNTKVDKKVEPKSCDKTHTCPPCPAPEAAGAPSVFLFPPKPKDTLMISRTPEVTCVVVDVSHEDPEVKFNWYVDGVEVHNAKTKPREEQYNSTYRVVSVLTVLHQDWLNGKEYKCKVSNKALPAPIEKTISKAKGQPREPQVCTLPPSREEMTKNQVSLWCLVKGFYPSDIAVEWESNGQPENNYKTTPPVLDSDGSFFLYSKLTVDKSRWQQGNVFSCSVLHEALHSHYTQKSLSLSPGK heavy 2: QVQLVQSGAEVKKPGASVKVSCKASGYTFTSYGISWVRQAPGQGLEWMGWISAYNGNTNYAQKLQGRVTMTTDTSTSTAYMELRSLRSDDTAVYYCARESSYGSEAFRAGMDVWGQGTTVTVSS light: not shown	–	–	–	–	–	–	–	1.46	no binding (tested: 1e-6 M)	0.303	5.73e-05	190000	no binding (tested: 1e-6 M)
